Measurements as given in patent US20190153061A1.

B1: BCMA-7 CAR (139106) (protein)
chain: EVQLVETGGGLVQPGGSLRLSCAVSGFALSNHGMSWVRRAPGKGLEWVSGIVYSGSTYYAASVKGRFTISRDNSRNTLYLQMNSLRPEDTAIYYCSAHGGESDVWGQGTTVTVSSASGGGGSGGRASGGGGSEIVMTQSPATLSVSPGERATLSCRASQSVSSKLAWYQQKPGQAPRLLMYGASIRATGIPDRFSGSGSGTEFTLTISSLEPEDFAVYYCQQYGSSSWTFGQGTKVEIKTTTPAPRPPTPAPTIASQPLSLRPEACRPAAGGAVHTRGLDFACDIYIWAPLAGTCGVLLLSLVITLYCKRGRKKLLYIFKQPFMRPVQTTQEEDGCSCRFPEEEEGGCELRVKFSRSADAPAYKQGQNQLYNELNLGRREEYDVLDKRRGRDPEMGGKPRRKNPQEGLYNELQKDKMAEAYSEIGMKGERRRGKGHDGLYQGLSTATKDTYDALHMQALPPR
B2: BCMA-5 CAR (139104) (protein)
chain: EVQLLETGGGLVQPGGSLRLSCAVSGFALSNHGMSWVRRAPGKGLEWVSGIVYSGSTYYAASVKGRFTISRDNSRNTLYLQMNSLRPEDTAIYYCSAHGGESDVWGQGTTVTVSSASGGGGSGGRASGGGGSEIVLTQSPATLSVSPGESATLSCRASQSVSSNLAWYQQKPGQAPRLLIYGASTRASGIPDRFSGSGSGTDFTLTISSLQAEDVAVYYCQQYGSSLTFGGGTKVEIKTTTPAPRPPTPAPTIASQPLSLRPEACRPAAGGAVHTRGLDFACDIYIWAPLAGTCGVLLLSLVITLYCKRGRKKLLYIFKQPFMRPVQTTQEEDGCSCRFPEEEEGGCELRVKFSRSADAPAYKQGQNQLYNELNLGRREEYDVLDKRRGRDPEMGGKPRRKNPQEGLYNELQKDKMAEAYSEIGMKGERRRGKGHDGLYQGLSTATKDTYDALHMQALPPR
B3: BCMA-1 CAR (139100) (protein)
chain: QVQLVQSGAEVRKTGASVKVSCKASGYIFDNFGINWVRQAPGQGLEWMGWINPKNNNTNYAQKFQGRVTITADESTNTAYMEVSSLRSEDTAVYYCARGPYYYQSYMDVWGQGTMVTVSSASGGGGSGGRASGGGGSDIVMTQTPLSLPVTPGEPASISCRSSQSLLHSNGYNYLNWYLQKPGQSPQLLIYLGSKRASGVPDRFSGSGSGTDFTLHITRVGAEDVGVYYCMQALQTPYTFGQGTKLEIKTTTPAPRPPTPAPTIASQPLSLRPEACRPAAGGAVHTRGLDFACDIYIWAPLAGTCGVLLLSLVITLYCKRGRKKLLYIFKQPFMRPVQTTQEEDGCSCRFPEEEEGGCELRVKFSRSADAPAYKQGQNQLYNELNLGRREEYDVLDKRRGRDPEMGGKPRRKNPQEGLYNELQKDKMAEAYSEIGMKGERRRGKGHDGLYQGLSTATKDTYDALHMQALPPR
B4: BCMA-4 CAR (139103) (protein)
chain: QVQLVESGGGLVQPGRSLRLSCAASGFTFSNYAMSWVRQAPGKGLGWVSGISRSGENTYYADSVKGRFTISRDNSKNTLYLQMNSLRDEDTAVYYCARSPAHYYGGMDVWGQGTTVTVSSASGGGGSGGRASGGGGSDIVLTQSPGTLSLSPGERATLSCRASQSISSSFLAWYQQKPGQAPRLLIYGASRRATGIPDRFSGSGSGTDFTLTISRLEPEDSAVYYCQQYHSSPSWTFGQGTKLEIKTTTPAPRPPTPAPTIASQPLSLRPEACRPAAGGAVHTRGLDFACDIYIWAPLAGTCGVLLLSLVITLYCKRGRKKLLYIFKQPFMRPVQTTQEEDGCSCRFPEEEEGGCELRVKFSRSADAPAYKQGQNQLYNELNLGRREEYDVLDKRRGRDPEMGGKPRRKNPQEGLYNELQKDKMAEAYSEIGMKGERRRGKGHDGLYQGLSTATKDTYDALHMQALPPR

The binders below were run against B-cell maturation antigen (BCMA) expressed on cells (human), Q02223 (assay: cell-based or functional assay).
B-cell maturation antigen (BCMA) expressed on cells (human), Q02223, sequence (Q02223 whole entry): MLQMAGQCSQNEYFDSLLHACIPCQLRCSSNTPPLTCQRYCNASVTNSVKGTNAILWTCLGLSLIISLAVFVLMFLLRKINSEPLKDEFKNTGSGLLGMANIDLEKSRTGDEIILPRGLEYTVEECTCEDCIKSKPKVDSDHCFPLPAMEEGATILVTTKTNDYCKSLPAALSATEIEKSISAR

Binder | Cell killing EC50; KMS11-luc | JNL binding assay, ratio to K562; K562-BCMA | JNL binding assay, ratio to K562; NCI-H929 | JNL binding assay, ratio to K562; RPMI 8226 | Proliferation, CD3 ratio to no target; K562-BCMA | Proliferation, CD3 ratio to no target; KMS11-luc | Proliferation, CD3 ratio to no target; NCI-H929 | Proliferation, CD3 ratio to no target; RPMI 8226 | Proliferation, CD4 ratio to no target; K562-BCMA | Proliferation, CD4 ratio to no target; KMS11-luc
B1 | 0.15 not printed | 2.55 | 2.36 | 2.77 | 1.72 | 1.71 | 1.8 | 1.62 | 2.17 | 1.96
B2 | 0.21 not printed | 2.34 | 2.34 | 2.4 | 1.62 | 1.61 | 1.72 | 1.73 | 2.19 | 1.9
B3 | 0.68 not printed | 4.6 | 4.55 | 5.06 | 1.59 | 1.38 | 4.97 | 2.96 | 1.57 | 1.24
B4 | 0.13 not printed | 4.47 | 3.31 | 6.25 | 7.37 | 8.63 | 8.64 | 8.14 | 9.21 | 8.6

Same assay, conditions: not given

Binder | Proliferation, CD4 ratio to no target; NCI-H929 | Proliferation, CD4 ratio to no target; RPMI 8226 | Proliferation, CD8 ratio to no target; K562-BCMA | Proliferation, CD8 ratio to no target; KMS11-luc | Proliferation, CD8 ratio to no target; NCI-H929 | Proliferation, CD8 ratio to no target; RPMI 8226
B1 | 2.23 | 1.91 | 1.08 | 1.35 | 1.18 | 1.19
B2 | 2.23 | 2.15 | 0.99 | 1.27 | 1.11 | 1.25
B3 | 5.57 | 2.43 | 1.61 | 1.56 | 4.14 | 3.58
B4 | 9.86 | 10.1 | 5.66 | 8.74 | 7.42 | 6.19
